Substitutions are numbered along the chain they refer to. Names and notes keep the numbering of the source.
T1: recombinant human soluble gpNMB (recombinant human gpNMB-FLAG-His) (human, UniProt Q14956 23-498)
T1 sequence: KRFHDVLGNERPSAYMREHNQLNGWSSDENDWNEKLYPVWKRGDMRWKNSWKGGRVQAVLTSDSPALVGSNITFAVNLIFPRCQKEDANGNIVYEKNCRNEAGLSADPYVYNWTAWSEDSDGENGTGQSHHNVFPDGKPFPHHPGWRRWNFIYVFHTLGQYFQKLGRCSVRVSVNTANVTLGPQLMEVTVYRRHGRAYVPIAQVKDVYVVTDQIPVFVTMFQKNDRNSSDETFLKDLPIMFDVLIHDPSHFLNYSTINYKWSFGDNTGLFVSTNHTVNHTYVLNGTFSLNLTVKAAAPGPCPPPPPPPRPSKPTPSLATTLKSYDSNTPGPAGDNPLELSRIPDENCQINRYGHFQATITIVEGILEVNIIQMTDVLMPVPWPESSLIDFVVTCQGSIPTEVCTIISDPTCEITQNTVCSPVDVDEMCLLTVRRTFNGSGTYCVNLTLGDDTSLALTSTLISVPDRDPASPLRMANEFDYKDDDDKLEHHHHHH

T2: recombinant mouse soluble gpNMB (recombinant mouse gpNMB-FLAG-His) (mouse, UniProt Q99P91 23-502)
T2 sequence: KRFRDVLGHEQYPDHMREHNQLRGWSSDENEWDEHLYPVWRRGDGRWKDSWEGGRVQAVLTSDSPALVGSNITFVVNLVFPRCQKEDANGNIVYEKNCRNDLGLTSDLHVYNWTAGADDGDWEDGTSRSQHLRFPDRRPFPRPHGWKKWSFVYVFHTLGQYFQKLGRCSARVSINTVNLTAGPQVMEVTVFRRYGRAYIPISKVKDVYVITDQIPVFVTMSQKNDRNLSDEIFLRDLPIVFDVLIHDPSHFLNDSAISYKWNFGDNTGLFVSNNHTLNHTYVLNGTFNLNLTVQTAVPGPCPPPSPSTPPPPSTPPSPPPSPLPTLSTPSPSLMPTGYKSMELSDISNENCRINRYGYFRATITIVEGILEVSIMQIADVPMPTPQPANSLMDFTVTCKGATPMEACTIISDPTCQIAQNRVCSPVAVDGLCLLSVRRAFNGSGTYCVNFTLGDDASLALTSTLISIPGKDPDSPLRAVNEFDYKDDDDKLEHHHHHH

B1: hGPN18-2_H2L3 VL E39A (antibody, V domains shown)
VH: QVQLVQSGPGLVQPTQTLTLTCSFSGFSLSTSVMGVGWIRQPSGKGLEWLADIWWDDDKDYNPSLKSRLTISKDTSKNQVVLTMTNMDTVDTATYYCARTYYSNYEYYGMDYWGQGTLVTVSS
VL: DIVMTQSPDSLAVSLGERATINCRSSQTIILSNGNTYLAWYQQKPGQPPKLLIYKVSNRFSGVPDRFSGSGSGTDFTLTISSLQAEDVAVYYCFQGSHVPFTFGSGTKLEIKR
B2: hGPN18-2_H2L3 VL F101A (antibody, V domains shown)
VH: B1 VH
VL: B1 VL with A39E, F101A
B3: hGPN18-2_H2L3 VL F60A (antibody, V domains shown)
VH: B1 VH
VL: B1 VL with A39E, F60A
B4: hGPN18-2_H2L3 VL G96A (antibody, V domains shown)
VH: B1 VH
VL: B1 VL with A39E, G96A
B5: hGPN18-2_H2L3 VL F94A (antibody, V domains shown)
VH: B1 VH
VL: B1 VL with A39E, F94A
B6: hGPN18-2_H2L3 VL G34A (antibody, V domains shown)
VH: B1 VH
VL: B1 VL with G34A, A39E
B7: GPN18-4 (antibody, V domains shown)
VH: QVQLQQSGAELTKPGTSVKMSCKASGYTLSSYWMNWIKQRPGQGLEWIGTINPSNNYTAYNLKFKDKAMLTADKSSSTAYMQLSSLTSEDSAVYYCATWGYWGQGTTLTVSS
VL: DIVMTQSHKFMSTSVGDRVSITCKASQDVSTAVAWHQQKPGQPPKLLIYSASYRYTGVPDRFTGSGSGTDFTFTISSVQTEDLAIYYCQHHYTTTWTFGGGTKLEIR
notes: monoclonal with mouse IgG constant regions
B8: GPN18-6 (antibody, V domains shown)
VH: EVQLQQSGPELVMPGSSVKISCKASGYTFTDYYMNWVRQSHGKSLEWIGDINPINGDITYNQKFKGKATLTVDKSSSTDYMELRGLTSEDSAVYYCAREAFFGYKGNYFDYWGQGTTLTVSS
VL: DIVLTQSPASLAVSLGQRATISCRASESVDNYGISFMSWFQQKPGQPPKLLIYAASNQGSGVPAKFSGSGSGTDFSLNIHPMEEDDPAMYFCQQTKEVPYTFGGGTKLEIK
notes: as for B7
B9: GPN15-2 (antibody, V domains shown)
VH: QVQLQQPGAELVKPGASVKMSCKASGYTFTNHNMHWVKQTPGQGLEWIGAFYTGNGDTSYNQKFKGKATLTADKSSSTAYIQLSSLTSEDSAVYYCARERYDGYYIAMDYWGQGTSVTVSS
VL: QIVLTQSPAFMSVSPGEKVTMTCSASSSVYYMFWYQQKPRSSPKPWIYLTSKLASGVPARFSGSGSGTSYSVTISSMEAEDAATYYCQQWSSNPQWTFGGGTKLEIK
notes: as for B7
B10: GPN11-10 (antibody, V domains shown)
VH: QVNLLQSGAALVKPGASVRLSCKTSGYTFTDCYIHWVRQSHGKSLEWIGFINPNSGYTFYNEKFKSKATLTVAKSTNTAYMELSRLTSEDSATYFCTRGDYYTSNLYDWFAYWGQGTLVTVSS
VL: DTVMTQSPASMSTSVGERVTVNCKASQTVGTVVAWFQQKPGQSPKRLIYWATNRHTGVPDRFTGSGFGRDFSLTISNVEAEDLAVYYCLQYGSVPPTFGGGTKLELK
notes: as for B7
B11: GPN18-5 (antibody, V domains shown)
VH: QVQLQQSGAELAKPGTSVKMSCKASGYTFTTYWMNWVKQRPGQDLEWIGAINPSNDYTEYNQKFKDKAILTADKSSNTAYMQLSSLTSEDSAVYYCGRSYSPDYWGQGTTLTVSS
VL: DIVMTQSQKFMSTSVGDRVSVTCKASQNVDNHVAWHQQKPGQSPKALIYSASYRYSGVPDRFTGSGSGTDFTLTIRDVQSEDLADYFCQQYKSYPFTFGSGTELEIK
notes: as for B7
B12: GPN15-3 (antibody, V domains shown)
VH: QVTLKESGPGILQPSQTLSLTCSFSGFSLTTSGMGVGWIRQPSGKGLEWLADMWWDDDKNYNPSLKSRLTISKDNSKKQVFLKIASVDTADTATYYCARRVYSSWFAYWGQGTLVTVSA
VL: DIVMTQSQKFMSTSVGDRVSVTCKASQNVGANVAWYQQKPGQSPKTLIYSASYRYGGVPDRFTGSGSGTDFTFTITNVQSEDLAEYFCQQYNNYPLTFGAGTKLDLK
notes: as for B7
B13: GPN05-1 (antibody, V domains shown)
VH: QVQLQQSGAELVRPGTSVKVSCKASGYAFSNHLIEWVKQRPGQGLEWIGVINPGSGGTNYIEKFKGKATLTADKSSSTAYMQLSSLTSDDSAVYFCARGANWDVGFAYWGQGTLVTVSA
VL: EIQMTQSPSSMSASLGDRITITCQATQDIVKNLNWYQQKPGKPPSFLIYYATELAEGVPSRFSGSGSGSDFSLTISNLESEDFADYYCLQFHEFPRTFGGGTKLEIK
notes: as for B7
B14: GPN18-1 (antibody, V domains shown)
VH: QVTLKESGPGILQPSQTLSLTCSFSGFSLSTSVMGVGWIRQPSGKGLEWLADIWWDDDKDYNPSLKSRLTISKDTSKNQVFLKIASVDTADTATYYCARAYYSNYEYYGMDYWGQGTSVTVSS
VL: DVLMTQTPLSLPVSLGDQASISCRSSQSIVHSNGNTYLEWYLQKPGQSPKLLIYKVSNRFSGVPDRFSGSGSGTDFTLKISRVEAEDLGVYYCFQGSHVPFTFGSGTKLEIK
notes: as for B7
B15: GPN18-2 (antibody, V domains shown)
VH: B14 VH with A100T
VL: B14 VL with S28T, V30I, H31L
notes: as for B7
B16: GPN18-7 (antibody, V domains shown)
VH: B14 VH with Y105F
VL: B14 VL with T7I, S28T
notes: as for B7
B17: GPN06-1 (antibody, V domains shown)
VH: QVQLQQPGAEIVRPGASVKLSCKASGYTFTDNWMGWVKQRPGQGLEWIGAIDPSDSFTNYNQNFKGKATLTVDTSSSTAYMQLSSLTSEDSAVYFCTRSGYYGSPKLGGDYWGQGTTLTVSS
VL: QIVLTQSPAIMSASLGEEITLTCSASSSISYMHWYQQKSGTSPKLLIYSTSNLASGVPSRFSGSGSGTFYSLTISSVEAEDAADYYCHQWNSYPCTFGGGTKLEIK
notes: as for B7
B18: GPN09-1 (antibody, V domains shown)
VH: QVQLKASGPGLVQPSQTLSLTCTVSGLSLTSININWIRQPPGKGLEWMGVIWSDGDTDFNSAVKSRLSISRDTSKSQVFLNMNSLQTEDTAMYFCARGIRDWGQGVMVTVSS
VL: DIVMTQTPLSLSVAIGQSASISCKSSQSLKYSDGKTYLNWVFQSPGQSPKRLIYQVSKLDSGVPDRFSGTGSETDFTLKISRVEAEDLGVYYCCQGSYSPHTFGSGTKLEIK
notes: as for B7
B19: 1-5E (antibody, V domains shown)
VH: EVQLQQSGAELVRSGASVKLSCTASGFNIKDYYMHWVKQRPDQGLEWIGWIDPENGDTEYAPKFQGKATMTADTSPNTAYLQLSSLTSEDTAVYYCNGVYYGSRGFFDYWGQGTTLTVSS
VL: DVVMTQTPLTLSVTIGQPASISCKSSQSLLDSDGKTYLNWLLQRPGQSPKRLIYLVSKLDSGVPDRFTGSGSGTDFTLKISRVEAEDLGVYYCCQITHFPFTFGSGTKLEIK
notes: obtained by immunization with a vaccine peptide of a previous report; also called vaccine peptide antibody

target: T1, recombinant human soluble gpNMB …; test: antigen ELISA

EC50 [nM]	Binder
84.8	B1
7.66	B2
2.28	B3
10.8	B4
18	B5
3.94	B6

target: T1, recombinant human soluble gpNMB …; test: antigen ELISA, vs hGPN18-2_H2L3

Relative binding activity	Binder
0.1	B1
0.69	B2
1.12	B3
0.91	B4
0.07	B5
1	B6

target: T1, recombinant human soluble gpNMB …; test: SPR, antibody 100 nM over captured gpNMB-FLAG-His, 25C

Kd [nM]	koff [s⁻¹]	kon [M⁻¹ s⁻¹]	Binder
0.32	1.5e-05	47000	B7
24	0.00065	27000	B8
0.0035	6e-07	170000	B9
13	0.001	81000	B10
2	0.0003	150000	B11
2.9	0.00037	130000	B12
3.3	0.00016	48000	B13
14	0.00054	38000	B14
2.2	6.8e-05	31000	B15
23	0.00059	26000	B16
1.4	0.00049	340000	B17

target: T2, recombinant mouse soluble gpNMB …; test: as above

Kd [nM]	koff [s⁻¹]	kon [M⁻¹ s⁻¹]	Binder
2.6	0.00042	160000	B18
3.8	0.00012	30000	B7
31	0.00098	32000	B8
2	0.00028	140000	B9
4.9	0.00037	75000	B10
7.7	0.0007	91000	B11
9.1	0.0061	670000	B19
2.9	0.00036	130000	B12
20	0.0013	61000	B13
24	0.00091	38000	B14
3.3	7.9e-05	24000	B15
49	0.00099	20000	B16
12	0.0018	150000	B17
